Measurements: US20220389120A1

Molecular target: PD-1 (UniProt Q15116)
Assay: PD-1 blocking assay

PD-1, sequence (Q15116 25-167): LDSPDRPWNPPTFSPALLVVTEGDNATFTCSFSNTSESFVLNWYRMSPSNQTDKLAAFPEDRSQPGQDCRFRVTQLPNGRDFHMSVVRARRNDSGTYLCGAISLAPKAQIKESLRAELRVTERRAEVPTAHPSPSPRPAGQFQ

IC50: 0.282 nM
Substance: Keytruda
